This assay concerns the target mature METTL8-Iso1 (Met1-Gln22 deleted) with a C-terminal His6 tag (human). The experiment in a line: SEC. On the technique in general: In gel filtration, larger molecules generally elute earlier.

On to “mature METTL8-Iso1 (Met1-Gln22 deleted) with a C-terminal His6 tag (enzyme)”, for which the stoichiometry N turned out to be 8.

The stoichiometry N is a count of units in the complex or per binding partner.

These data come from publication PMC9023283.
